Laboratory results: the supplement of paper PMC9233669
Variants at the floor of the assay were thinned out.

Legend:
biotinyl-Val-oxazolone = assay: self-aminoacylation, catalytic enhancement (BVO) (fold over background); higher = more active; k-Seq, kA / k0A0; sequences stand for … in GGGAAUGGAUCCACAUCUACGAAUUC…UUCACUGCAGACUUGACGAAGCUG
In short: (§1)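 Mutagenized RNA pools (0.43 μM; 21-nt variable region) were treated with 2–1250 μM of each biotinyl-aminoacyl-oxazolone. Conditions were 50 μL HEPES/NaCl/KCl/MgCl2/CaCl2 buffer, 5% acetonitrile, pH 6.9–7.0, room temperature, 90 minutes. Catalytic enhancement, the median kA relative to the uncatalyzed rate, was derived from streptavidin capture, qPCR and Illumina sequencing.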

biotinyl-Met-oxazolone = assay: self-aminoacylation, catalytic enhancement (BMO) (fold over background); higher = more active; k-Seq, kA / k0A0; sequences stand for … in GGGAAUGGAUCCACAUCUACGAAUUC…UUCACUGCAGACUUGACGAAGCUG
In short: as §1

biotinyl-Phe-oxazolone = assay: self-aminoacylation, catalytic enhancement (BFO) (fold over background); higher = more active; k-Seq, kA / k0A0; sequences stand for … in GGGAAUGGAUCCACAUCUACGAAUUC…UUCACUGCAGACUUGACGAAGCUG
In short: as §1

biotinyl-Ile-oxazolone = assay: self-aminoacylation, catalytic enhancement (BIO) (fold over background); higher = more active; k-Seq, kA / k0A0; sequences stand for … in GGGAAUGGAUCCACAUCUACGAAUUC…UUCACUGCAGACUUGACGAAGCUG
In short: as §1

biotinyl-Leu-oxazolone = assay: self-aminoacylation, catalytic enhancement (BLO) (fold over background); higher = more active; k-Seq, kA / k0A0; sequences stand for … in GGGAAUGGAUCCACAUCUACGAAUUC…UUCACUGCAGACUUGACGAAGCUG
In short: as §1

biotinyl-Trp-oxazolone = assay: self-aminoacylation, catalytic enhancement (BWO) (fold over background); higher = more active; k-Seq, kA / k0A0; sequences stand for … in GGGAAUGGAUCCACAUCUACGAAUUC…UUCACUGCAGACUUGACGAAGCUG
In short: as §1

Sequence | self-aminoacylation (biotinyl-Val-oxazolone) | self-aminoacylation (biotinyl-Met-oxazolone) | self-aminoacylation (biotinyl-Phe-oxazolone) | self-aminoacylation (biotinyl-Ile-oxazolone) | self-aminoacylation (biotinyl-Leu-oxazolone) | self-aminoacylation (biotinyl-Trp-oxazolone)
CUACACUUCAAGCAGUCGGUC [Fam1B.1 aminoacylation ribozyme variant] | 0.758 | 0.739 | 0.895 | 0.775 | 0.741 | 0.628
CUACACUUCUAGCAAUCGGUC [Fam1B.1 aminoacylation ribozyme variant] | 0.635 | 0.572 | 0.693 | 0.706 | 0.669 | 0.565
CUACACUUUAAGCAAUCGGUC [Fam1B.1 aminoacylation ribozyme variant] | 0.74 | 0.63 | 0.979 | 0.768 | 0.585 | 0.565
CUACAUCAAACAAUCGGACUG [Fam1A.1 aminoacylation ribozyme variant] | 0.974 | 0.804 | 1.11 | 1.1 | 0.586 | 0.749
CUACAUCAAACAAUCGGCCUG [Fam1A.1 aminoacylation ribozyme variant] | 1.25 | 1.35 | 2.89 | 1.25 | 1.41 | 2.21
CUACAUCAAACAAUCGGUCCG [Fam1A.1 aminoacylation ribozyme variant] | 0.872 | 1.1 | 0.932 | 0.838 | 0.805 | 0.83
CUACAUCAAACCAUCGGUCUG [Fam1A.1 aminoacylation ribozyme variant] | 0.932 | 0.791 | 1.04 | 0.834 | 0.889 | 0.6
CUACAUCAAAGAAUCGGUCUG [Fam1A.1 aminoacylation ribozyme variant] | 0.68 | 0.817 | 0.801 | 0.78 | 0.592 | 0.67
CUACAUCAACCAAUCGGUCUG [Fam1A.1 aminoacylation ribozyme variant] | 0.781 | 0.748 | 1.44 | 0.643 | 0.554 | 0.796
CUACCUCAAACAAGCGGUCUG [Fam1A.1 aminoacylation ribozyme variant] | 0.97 | 1.57 | 5.07 | 1.25 | 0.828 | 1.11
CUACCUCAAACAAUCGGUCUA [Fam1A.1 aminoacylation ribozyme variant] | 0.885 | 1.16 | 1.45 | 1.01 | 0.89 | 0.934
CUACGCUUCAAGCAAUCGGUC [Fam1B.1 aminoacylation ribozyme variant] | 1.06 | 1.14 | 59.9 | 0.964 | 1.86 | 29.9
CUACGUCAAACAUUCGGUCUG [Fam1A.1 aminoacylation ribozyme variant] | 3.79 | 2.93 | 12.8 | 2.87 | 2.5 | 3.07
CUACUACAAACAAACGGUCUG [Fam1A.1 aminoacylation ribozyme variant] | 0.857 | 0.673 | 0.827 | 0.874 | 0.648 | 0.575
CUACUACAAACAAUCGGUCUG [Fam1A.1 aminoacylation ribozyme variant] | 0.743 | 0.634 | 1.24 | 0.694 | 0.608 | 0.73
CUACUACAAACAAUCGGUCUU [Fam1A.1 aminoacylation ribozyme variant] | 0.675 | 0.565 | 0.658 | 0.533 | 0.515 | 0.511
CUACUACAAACAAUCGUUCUG [Fam1A.1 aminoacylation ribozyme variant] | 0.649 | 0.468 | 0.604 | 0.648 | 0.538 | 0.338
CUACUACAAACGAUCGGUCUG [Fam1A.1 aminoacylation ribozyme variant] | 0.797 | 0.915 | 0.437 | 0.821 | 0.656 | 0.607
CUACUACUAACAAUCGGUCUG [Fam1A.1 aminoacylation ribozyme variant] | 0.673 | 0.729 | 1 | 0.764 | 0.495 | 0.466
CUACUCAAAACAAUCGGUCUG [Fam1A.1 aminoacylation ribozyme variant] | 0.968 | 1.11 | 1.27 | 1.02 | 0.676 | 1.23
CUACUCCAAACAAUAGGUCUG [Fam1A.1 aminoacylation ribozyme variant] | 0.776 | 0.938 | 1.17 | 0.839 | 0.744 | 0.734

Sequence | self-aminoacylation (biotinyl-Val-oxazolone) | self-aminoacylation (biotinyl-Met-oxazolone) | self-aminoacylation (biotinyl-Phe-oxazolone) | self-aminoacylation (biotinyl-Ile-oxazolone) | self-aminoacylation (biotinyl-Leu-oxazolone) | self-aminoacylation (biotinyl-Trp-oxazolone)
CUACUCCAAACAAUCGGCCUG [Fam1A.1 aminoacylation ribozyme variant] | 1.42 | 1.38 | 3.54 | 1.65 | 2.07 | 3.22
CUACUCCAAACAAUCGGUCUC [Fam1A.1 aminoacylation ribozyme variant] | 0.723 | 0.753 | 2.41 | 0.71 | 0.513 | 1.34
CUACUCCAAACAAUCGGUCUG [Fam1A.1 aminoacylation ribozyme variant] | 0.825 | 0.786 | 3.09 | 0.801 | 0.731 | 1.95
CUACUCCAAACAAUCGGUGUG [Fam1A.1 aminoacylation ribozyme variant] | 0.879 | 0.945 | 1.03 | 0.733 | 0.964 | 0.752
CUACUCCAAACAAUCUGUCUG [Fam1A.1 aminoacylation ribozyme variant] | 0.766 | 0.578 | 0.973 | 0.799 | 0.716 | 0.506
CUACUCCAACCAAUCGGUCUG [Fam1A.1 aminoacylation ribozyme variant] | 0.706 | 0.74 | 0.726 | 0.623 | 0.855 | 0.879
CUACUCCACACAAUCGGUCUG [Fam1A.1 aminoacylation ribozyme variant] | 0.731 | 0.722 | 0.891 | 0.696 | 0.702 | 0.9
CUACUCGAAACAAUCGGUCUG [Fam1A.1 aminoacylation ribozyme variant] | 1.01 | 0.942 | 0.599 | 0.837 | 0.84 | 0.979
CUACUGCAAAAAAUCGGUCUG [Fam1A.1 aminoacylation ribozyme variant] | 0.703 | 0.686 | 0.868 | 0.788 | 0.638 | 0.892
CUACUGCAAACAAUCGAUCUG [Fam1A.1 aminoacylation ribozyme variant] | 0.732 | 0.937 | 0.699 | 0.705 | 0.663 | 0.679
CUACUGCAAACAAUCGGGCUG [Fam1A.1 aminoacylation ribozyme variant] | 1.98 | 1.69 | 8.54 | 1.74 | 1.61 | 0.887
CUACUGCAAACAAUCGGUCUG [Fam1A.1 aminoacylation ribozyme variant] | 0.844 | 0.769 | 1.08 | 0.804 | 0.776 | 0.77
CUACUGCAUACAAUCGGUCUG [Fam1A.1 aminoacylation ribozyme variant] | 0.643 | 0.612 | 0.959 | 0.677 | 0.577 | 0.659
CUACUUAAAAAAAUCGGUCUG [Fam1A.1 aminoacylation ribozyme variant] | 0.804 | 0.806 | 0.661 | 0.88 | 0.768 | 0.49
CUACUUAAAACAAACGGUCUG [Fam1A.1 aminoacylation ribozyme variant] | 0.895 | 0.871 | 0.836 | 0.911 | 0.933 | 0.67
CUACUUAAAACAAGCGGUCUG [Fam1A.1 aminoacylation ribozyme variant] | 0.902 | 0.926 | 0.744 | 1.04 | 0.836 | 0.982
CUACUUAAAACAAUCGGUCCG [Fam1A.1 aminoacylation ribozyme variant] | 0.835 | 1.12 | 0.603 | 0.878 | 0.908 | 0.709
CUACUUAAAACAAUCGGUCUA [Fam1A.1 aminoacylation ribozyme variant] | 0.894 | 0.729 | 0.81 | 0.766 | 0.602 | 0.711
CUACUUAAAACUAUCGGUCUG [Fam1A.1 aminoacylation ribozyme variant] | 1.06 | 0.922 | 0.83 | 1.11 | 0.97 | 0.746
CUACUUAAGACAAUCGGUCUG [Fam1A.1 aminoacylation ribozyme variant] | 0.783 | 0.909 | 0.817 | 0.775 | 0.668 | 0.71
CUACUUCAAAAAAUCGGCCUG [Fam1A.1 aminoacylation ribozyme variant] | 1.56 | 1.73 | 15.3 | 1.9 | 1.7 | 13.1
